Results published in US20080213284A1.
Like-named read-outs stand apart in the source and are kept apart here.

Experiments:
[1] = biological target: receptor on VERO E6 cells (not identified in the filing); assay: FACS competition against S2-Fc (330 ng/mL) on VERO E6 cells; agent at 1 µg/mL
[2] = biological target: receptor on VERO E6 cells (not identified in the filing); assay: FACS competition against S2-Fc (330 ng/mL) on VERO E6 cells; agent at 10 µg/mL
[3] = biological target: receptor on VERO E6 cells (not identified in the filing)

Negative control (blocking agent)
Percent of Inhibition [1]: 0% | Percent of Inhibition [2]: 0% | Percent of Inhibition [3]: 0%

recombinant RBD2 (from UniProt P59594 284-735)
Percent of Inhibition [1]: 100% | Percent of Inhibition [2]: 100% | Percent of Inhibition [3]: 100%
